Source: PMC7380489

Target: human TRIM28 N-terminal RBCC domain (human)
Assay: SEC-MALS + other: SEC-SAXS + AUC

Substance: human TRIM28 N-terminal RBCC domain (domain or fragment)
- stoichiometry N: 3
